According to article PMC10711433, “The forkhead DNA-binding domain binds specific G2-rich RNA sequences”:

Tests used:
FOXL2 = biological target: T1, FOXL2 (Homo sapiens, UniProt P58012 1-376); assay: pulldown; 37 C; 10 mM HEPES, 140 mM KCl, 25 mM NaCl, 1 mM MgCl2, 0.1 mM CaCl2; equimolar mix, tRNA; settings: tags: His-SUMO, cleaved
T1 sequence: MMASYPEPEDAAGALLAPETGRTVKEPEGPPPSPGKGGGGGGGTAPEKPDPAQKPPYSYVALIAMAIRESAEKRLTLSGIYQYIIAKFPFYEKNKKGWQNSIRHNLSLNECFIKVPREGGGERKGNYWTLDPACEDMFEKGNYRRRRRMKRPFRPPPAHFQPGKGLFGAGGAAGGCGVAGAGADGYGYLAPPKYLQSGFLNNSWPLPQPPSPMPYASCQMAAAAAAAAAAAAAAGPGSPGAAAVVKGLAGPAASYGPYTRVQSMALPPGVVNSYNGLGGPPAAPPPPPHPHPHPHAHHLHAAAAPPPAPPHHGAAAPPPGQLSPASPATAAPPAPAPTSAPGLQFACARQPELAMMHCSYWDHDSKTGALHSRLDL

FOXL2 wt (recombinant) [1] = biological target: T2, FOXL2 wt (recombinant) (UniProt P58012 1-376); assay: pull-down competition + HTS; 140 mM LiCl, no K+/Na+; 10 mM HEPES (pH 7.5), 140 mM KCl, 25 mM NaCl, 1 mM MgCl2, 0.1 mM CaCl2, 0.001% IGEPAL, 100 nM yeast tRNA, 50 nM total aptamers, 37 C, 30 min; Li+ variant: 140 mM LiCl replaces KCl/NaCl; settings: protein: recombinant; tags: His-SUMO tag cleaved; putative two-tier intramolecular G4
T2 sequence: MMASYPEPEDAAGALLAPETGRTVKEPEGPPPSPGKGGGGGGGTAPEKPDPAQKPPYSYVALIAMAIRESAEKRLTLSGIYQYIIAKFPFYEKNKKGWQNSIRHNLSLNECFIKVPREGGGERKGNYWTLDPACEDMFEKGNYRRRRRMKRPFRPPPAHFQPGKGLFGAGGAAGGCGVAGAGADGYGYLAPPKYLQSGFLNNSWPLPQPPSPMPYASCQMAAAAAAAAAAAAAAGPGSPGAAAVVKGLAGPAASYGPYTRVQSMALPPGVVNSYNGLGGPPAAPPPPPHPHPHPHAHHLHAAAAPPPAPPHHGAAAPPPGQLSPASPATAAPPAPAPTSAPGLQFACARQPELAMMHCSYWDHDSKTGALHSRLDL

FOXL2 C134W (mutFOXL2) [2] = biological target: T3, FOXL2 C134W (mutFOXL2) (UniProt P58012 1-376, C134W); assay: pull-down competition + HTS; K+/Na+ buffer, tRNA competitor; 10 mM HEPES (pH 7.5), 140 mM KCl, 25 mM NaCl, 1 mM MgCl2, 0.1 mM CaCl2, 0.001% IGEPAL, 100 nM yeast tRNA, 50 nM total aptamers, 37 C, 30 min; Li+ variant: 140 mM LiCl replaces KCl/NaCl; settings: protein: recombinant; tags: His-SUMO tag cleaved; putative two-tier intramolecular G4
T3 sequence: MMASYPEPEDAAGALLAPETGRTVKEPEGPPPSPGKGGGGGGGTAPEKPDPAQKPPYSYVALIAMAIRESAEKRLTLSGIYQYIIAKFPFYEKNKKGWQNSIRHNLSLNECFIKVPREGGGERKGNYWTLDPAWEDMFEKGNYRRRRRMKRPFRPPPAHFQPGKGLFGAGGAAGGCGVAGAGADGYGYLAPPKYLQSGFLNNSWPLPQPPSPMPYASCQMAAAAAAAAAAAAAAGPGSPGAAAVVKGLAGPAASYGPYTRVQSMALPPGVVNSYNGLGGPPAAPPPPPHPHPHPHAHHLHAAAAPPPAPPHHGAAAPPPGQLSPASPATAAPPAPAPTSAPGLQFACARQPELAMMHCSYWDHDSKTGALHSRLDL

FOXL2 C134W = biological target: T4, FOXL2 C134W (Homo sapiens, UniProt P58012 1-376, C134W); assay: pulldown; 37 C; 10 mM HEPES, 140 mM KCl, 25 mM NaCl, 1 mM MgCl2, 0.1 mM CaCl2; equimolar mix, tRNA; settings: tags: His-SUMO, cleaved
T4 sequence: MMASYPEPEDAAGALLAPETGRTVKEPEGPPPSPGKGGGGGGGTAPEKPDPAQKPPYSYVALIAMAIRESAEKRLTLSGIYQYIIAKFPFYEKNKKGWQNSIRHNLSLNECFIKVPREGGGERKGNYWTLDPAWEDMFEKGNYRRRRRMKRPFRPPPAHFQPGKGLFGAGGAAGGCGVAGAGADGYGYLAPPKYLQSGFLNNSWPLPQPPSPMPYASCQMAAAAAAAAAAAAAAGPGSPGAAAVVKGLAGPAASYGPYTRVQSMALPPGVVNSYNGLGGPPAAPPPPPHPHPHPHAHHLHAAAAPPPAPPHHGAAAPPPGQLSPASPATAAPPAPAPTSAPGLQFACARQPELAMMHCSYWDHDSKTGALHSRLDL

FOXL2 wt (recombinant) [3] = biological target: T2, FOXL2 wt (recombinant); assay: pull-down competition + HTS; K+/Na+ buffer; basically absent; 10 mM HEPES (pH 7.5), 140 mM KCl, 25 mM NaCl, 1 mM MgCl2, 0.1 mM CaCl2, 0.001% IGEPAL, 100 nM yeast tRNA, 50 nM total aptamers, 37 C, 30 min; Li+ variant: 140 mM LiCl replaces KCl/NaCl; settings: protein: recombinant; tags: His-SUMO tag cleaved; unable to fold into G4
FOXL2 C134W (mutFOXL2) [4] = biological target: T3, FOXL2 C134W (mutFOXL2); assay: as above; settings: protein: recombinant; tags: His-SUMO tag cleaved; unable to fold into G4
FOXL2 wt (recombinant) [5] = biological target: T2, FOXL2 wt (recombinant); assay: pull-down competition + HTS; mixed with mutRF001; 10 mM HEPES (pH 7.5), 140 mM KCl, 25 mM NaCl, 1 mM MgCl2, 0.1 mM CaCl2, 0.001% IGEPAL, 100 nM yeast tRNA, 50 nM total aptamers, 37 C, 30 min; Li+ variant: 140 mM LiCl replaces KCl/NaCl; settings: protein: recombinant; tags: His-SUMO tag cleaved; putative two-tier intramolecular G4
FOXL2 wt (recombinant) [6] = biological target: T2, FOXL2 wt (recombinant); assay: pull-down competition + HTS; K+/Na+ buffer, tRNA competitor; 10 mM HEPES (pH 7.5), 140 mM KCl, 25 mM NaCl, 1 mM MgCl2, 0.1 mM CaCl2, 0.001% IGEPAL, 100 nM yeast tRNA, 50 nM total aptamers, 37 C, 30 min; Li+ variant: 140 mM LiCl replaces KCl/NaCl; settings: protein: recombinant; tags: His-SUMO tag cleaved; putative two-tier intramolecular G4
FOXL2 wt (recombinant) [7] = biological target: T2, FOXL2 wt (recombinant); assay: pull-down competition + HTS; mixed with RF000/RF002 DNA and scr50 RNA; 10 mM HEPES (pH 7.5), 140 mM KCl, 25 mM NaCl, 1 mM MgCl2, 0.1 mM CaCl2, 0.001% IGEPAL, 100 nM yeast tRNA, 50 nM total aptamers, 37 C, 30 min; Li+ variant: 140 mM LiCl replaces KCl/NaCl; settings: protein: recombinant; tags: His-SUMO tag cleaved; putative two-tier intramolecular G4

B1: RF002 DNA (ssDNA)
DNA: GGGAGAGTATCCGTTGAGGCTGATCGGACTTTGGTGGTTGGAGGACGGATGGACGGAGGTTTATTAGGCTCGCAGATCGGAAGAGCGTCGTGTAGG
- binding result (FOXL2): no binding

Binder: UCGGACUUUGGUGGUUGGAGGACGGAUGGACGGAGGUUUAUUAGGCUCGC (structured_RNA) [RF002 RNA]
- binding result (FOXL2 wt (recombinant) [1]): binds
- binding result (FOXL2 C134W (mutFOXL2) [2]): binds

B2: RF000 DNA (ssDNA)
DNA: GGGAGAGTATCCGTTGAGGCTGAGAGGTATTAAGAGGCGGAGGCGGAAGGATGGCGGAGGACCGACAGAGAAGAGATCGGAAGAGCGTCGTGTAGG
- binding result (FOXL2): no binding

B3: RF000 (ssRNA)
RNA: GGGAGAGUAUCCGUUGAGGCUGAGAGGUAUUAAGAGGCGGAGGCGGAAGGAUGGCGGAGGACCGACAGAGAAGAGAUCGGAAGAGCGUCGUGUAGG
- binding result (FOXL2 C134W): binds
- binding result (FOXL2): binds

B4: RF002 (ssRNA)
RNA: GGGAGAGUAUCCGUUGAGGCUGAUCGGACUUUGGUGGUUGGAGGACGGAUGGACGGAGGUUUAUUAGGCUCGCAGAUCGGAAGAGCGUCGUGUAGG
- binding result (FOXL2 C134W): binds
- binding result (FOXL2): binds

B5: scr50 (ssRNA)
RNA: GGGAGAGUAUCCGUUGAGGCUGAGGGACACUCGCUGUUUUCGAAAUUACCCUUUAUGCGCGGGUAUUGAACCAAGAUCGGAAGAGCGUCGUGUAGG
- binding result (FOXL2 C134W): no binding
- binding result (FOXL2): no binding

B6: RF004 (ssRNA)
RNA: GGGAGAGUAUCCGUUGAGGCUGAAUCUGCGACUGGCUGGAGGUGGACGGAUGGCUGGAGGCGAAAUUGGCUUAAGAUCGGAAGAGCGUCGUGUAGG
- binding result (FOXL2 C134W): binds
- binding result (FOXL2): binds

Binder: GGGACACUCGCUGUUUUCGAAAUUACCCUUUAUGCGCGGGUAUUGAACCA (ssRNA) [scr50 RNA]
- binding result (FOXL2 wt (recombinant) [3]): no binding
- binding result (FOXL2 C134W (mutFOXL2) [4]): no binding

B7: RF001 DNA (ssDNA)
DNA: GGGAGAGTATCCGTTGAGGCTGACGTCATTTGGTGGATGGCGGAAGGAGGCGGAGGACGGGAAATTCTGGAAAAGATCGGAAGAGCGTCGTGTAGG
- binding result (FOXL2): no binding

B8: mutRF001 (ssRNA)
RNA: GGGAGAGUAUCCGUUGAGGCUGACGUCAUUUGAGUGAGUGAGCGAGAGAGAGUGCGUGAGAGACGAGAGCGUGAGAUCGGAAGAGCGUCGUGUAGG
- binding result (FOXL2): no binding

Binder: CGUCAUUUGGUGGAUGGCGGAAGGAGGCGGAGGACGGGAAAUUCUGGAAA (structured_RNA) [RF001 RNA]
- binding signal (FOXL2 wt (recombinant) [5]): > 10 fold enrichment RF001/mutRF001 vs no-protein control
- binding result (FOXL2 C134W (mutFOXL2) [2]): binds

B9: RF001 (ssRNA)
RNA: GGGAGAGUAUCCGUUGAGGCUGACGUCAUUUGGUGGAUGGCGGAAGGAGGCGGAGGACGGGAAAUUCUGGAAAAGAUCGGAAGAGCGUCGUGUAGG
- binding result (FOXL2 C134W): binds
- binding result (FOXL2): binds

Binder: GAGGUAUUAAGAGGCGGAGGCGGAAGGAUGGCGGAGGACCGACAGAGAAG (structured_RNA) [RF000 RNA]
- binding result (FOXL2 wt (recombinant) [6]): binds
- binding result (FOXL2 C134W (mutFOXL2) [2]): binds

Binder: AUCUGCGACUGGCUGGAGGUGGACGGAUGGCUGGAGGCGAAAUUGGCUUA (structured_RNA) [RF004 RNA]
- binding result (FOXL2 wt (recombinant) [7]): binds
- binding result (FOXL2 C134W (mutFOXL2) [2]): binds

B10: RF004 DNA (ssDNA)
DNA: GGGAGAGTATCCGTTGAGGCTGAATCTGCGACTGGCTGGAGGTGGACGGATGGCTGGAGGCGAAATTGGCTTAAGATCGGAAGAGCGTCGTGTAGG
- binding result (FOXL2): no binding
